Assay results published in PMC7277991, “Chemoenzymatic Synthesis and Biological Evaluation for Bioactive Molecules Derived from Bacterial Benzoyl Coenzyme A Ligase and Plant Type III Polyketide Synthase” (Biomolecules, 2020).

Columns and labels:
[1] = molecular target: T1, benzoate CoA ligase (BadA) (Rhodopseudomonas palustris, UniProt Q6NC13, H333A/I334A, form not given); test: X-ray crystal structure; type: binding; conditions: acyl-adenylate intermediate in active site; thiolation conformation, no CoA
T1 construct: recombinant in E. coli BL21 (DE3), Ni-NTA purified
T1 sequence (Q6NC13 entry or part of it H333A/I334A, form open): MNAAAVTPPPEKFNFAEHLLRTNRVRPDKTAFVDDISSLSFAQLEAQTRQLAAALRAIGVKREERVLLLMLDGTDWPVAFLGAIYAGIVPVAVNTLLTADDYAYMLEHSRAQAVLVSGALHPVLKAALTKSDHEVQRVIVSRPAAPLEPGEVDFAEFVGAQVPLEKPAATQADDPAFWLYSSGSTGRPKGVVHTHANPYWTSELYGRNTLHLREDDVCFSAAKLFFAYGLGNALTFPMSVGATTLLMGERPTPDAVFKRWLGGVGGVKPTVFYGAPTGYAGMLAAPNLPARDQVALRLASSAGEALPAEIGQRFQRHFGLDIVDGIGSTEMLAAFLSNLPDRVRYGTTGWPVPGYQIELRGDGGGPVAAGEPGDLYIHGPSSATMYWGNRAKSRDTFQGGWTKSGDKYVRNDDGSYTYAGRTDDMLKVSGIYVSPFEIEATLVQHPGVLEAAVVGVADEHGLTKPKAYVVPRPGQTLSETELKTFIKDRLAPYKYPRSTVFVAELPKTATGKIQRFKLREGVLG

[2] = molecular target: T2, Malonyl-CoA synthetase from Rhizobium triofli (RtMCS) (Rhizobium leguminosarum, UniProt Q9ZIP5); test: HPLC and LC-ESI-MS of malonyl-CoA; type: biochemical; conditions: 5 mM ATP, 2 mM CoA, 5 mM Mg2+, pH 7.5, room temperature; ATP regeneration
T2 construct: gene matB; recombinant in E. coli, Ni-NTA purified
T2 sequence (Q9ZIP5 1-504): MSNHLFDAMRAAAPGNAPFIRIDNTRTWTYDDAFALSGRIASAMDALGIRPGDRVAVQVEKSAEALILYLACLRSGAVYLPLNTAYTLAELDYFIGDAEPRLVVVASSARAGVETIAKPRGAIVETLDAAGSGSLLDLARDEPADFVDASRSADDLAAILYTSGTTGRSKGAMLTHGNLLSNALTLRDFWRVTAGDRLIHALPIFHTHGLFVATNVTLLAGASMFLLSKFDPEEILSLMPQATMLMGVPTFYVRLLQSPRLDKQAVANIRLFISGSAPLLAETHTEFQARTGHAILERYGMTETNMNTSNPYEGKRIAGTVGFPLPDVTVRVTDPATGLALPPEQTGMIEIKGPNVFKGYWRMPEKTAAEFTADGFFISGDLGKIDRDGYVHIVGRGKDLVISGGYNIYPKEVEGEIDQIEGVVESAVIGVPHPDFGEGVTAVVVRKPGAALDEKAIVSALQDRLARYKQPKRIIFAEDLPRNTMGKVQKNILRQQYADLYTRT

[3] = substrate: CC(C)(COP(=O)(O)OP(=O)(O)OC[C@H]1O[C@@H](n2cnc3c(N)ncnc32)[C@H](O)[C@@H]1OP(=O)(O)O)[C@@H](O)C(=O)NCCC(=O)NCCSC(=O)c1cnc(Cl)s1; test: HPLC product formation, Michaelis-Menten fit; type: biochemical, Pinus sylvestris; conditions: 60 μM malonyl-CoA, 100 mM potassium phosphate pH 7.4, 1 mM EDTA, 30 °C
Source text: (§1) HPLC product formation, Michaelis-Menten fit on stilbene synthase (STS) from Pinus sylvestris

[4] = substrate: Cc1ncsc1C(=O)SCCNC(=O)CCNC(=O)[C@H](O)C(C)(C)COP(=O)(O)OP(=O)(O)OC[C@H]1O[C@@H](n2cnc3c(N)ncnc32)[C@H](O)[C@@H]1OP(=O)(O)O; test: HPLC product formation, Michaelis-Menten fit; type: biochemical, Pinus sylvestris; conditions: 60 μM malonyl-CoA, 100 mM potassium phosphate pH 7.4, 1 mM EDTA, 30 °C
Source text: as §1

[5] = substrate: CC(C)(COP(=O)(O)OP(=O)(O)OC[C@H]1O[C@@H](n2cnc3c(N)ncnc32)[C@H](O)[C@@H]1OP(=O)(O)O)[C@@H](O)C(=O)NCCC(=O)NCCSC(=O)CCCCCc1ccccc1; test: HPLC product formation, Michaelis-Menten fit; type: biochemical, Pinus sylvestris; conditions: 60 μM malonyl-CoA, 100 mM potassium phosphate pH 7.4, 1 mM EDTA, 30 °C
Source text: as §1

[6] = substrate: Cc1ncc(C(=O)SCCNC(=O)CCNC(=O)[C@H](O)C(C)(C)COP(=O)(O)OP(=O)(O)OC[C@H]2O[C@@H](n3cnc4c(N)ncnc43)[C@H](O)[C@@H]2OP(=O)(O)O)s1; test: HPLC product formation, Michaelis-Menten fit; type: biochemical, Pinus sylvestris; conditions: 60 μM malonyl-CoA, 100 mM potassium phosphate pH 7.4, 1 mM EDTA, 30 °C
Source text: as §1

[7] = substrate: CC(C)(COP(=O)(O)OP(=O)(O)OC[C@H]1O[C@@H](n2cnc3c(N)ncnc32)[C@H](O)[C@@H]1OP(=O)(O)O)[C@@H](O)C(=O)NCCC(=O)NCCSC(=O)Cc1ccc(-c2ccccc2)cc1; test: HPLC product formation, Michaelis-Menten fit; type: biochemical, Pinus sylvestris; conditions: 60 μM malonyl-CoA, 100 mM potassium phosphate pH 7.4, 1 mM EDTA, 30 °C
Source text: as §1

[8] = substrate: CC(C)(COP(=O)(O)OP(=O)(O)OC[C@H]1O[C@@H](n2cnc3c(N)ncnc32)[C@H](O)[C@@H]1OP(=O)(O)O)[C@@H](O)C(=O)NCCC(=O)NCCSC(=O)CCCCCCc1ccccc1; test: HPLC product formation, Michaelis-Menten fit; type: biochemical, Pinus sylvestris; conditions: 60 μM malonyl-CoA, 100 mM potassium phosphate pH 7.4, 1 mM EDTA, 30 °C
Source text: as §1

[9] = substrate: CC(C)(COP(=O)(O)OP(=O)(O)OC[C@H]1O[C@@H](n2cnc3c(N)ncnc32)[C@H](O)[C@@H]1OP(=O)(O)O)[C@@H](O)C(=O)NCCC(=O)NCCSC(=O)CCCCc1ccc(F)cc1; test: HPLC product formation, Michaelis-Menten fit; type: biochemical, Pinus sylvestris; conditions: 60 μM malonyl-CoA, 100 mM potassium phosphate pH 7.4, 1 mM EDTA, 30 °C
Source text: as §1

## Nc1ncnc2c1ncn2[C@@H]1O[C@H](COP(=O)(O)OC(=O)c2cnc(Cl)s2)[C@@H](O)[C@H]1O [2-chloro-1,3-thiazole-5-carboxyl-AMP]
[1]
  X-ray crystal structure: in complex with a 2-chloro-1,3-thiazole-5-carboxyl-AMP (2Cl5C-AMP) (PDB entry 6M2U)

## O=C(O)CC(=O)O [malonic acid]
[2]
  HPLC and LC-ESI-MS of malonyl-CoA: Malonyl-CoA was chemo-enzymatically prepared from malonate, CoA, and ATP using RtMCS

## Cc1ncc(C(=O)OP(=O)(O)OC[C@H]2O[C@@H](n3cnc4c(N)ncnc43)[C@H](O)[C@@H]2O)s1 [2-methylthiazole-5-carboxyl-AMP]
[1]
  X-ray crystal structure: 2-methylthiazole-5-carboxyl-AMP (2M5C-AMP) (PDB entry 6M2T) intermediate were obtained

B1: stilbene synthase (STS) from Pinus sylvestris (Pinus sylvestris) (protein)
chain: MGGVDFEGFRKLQRADGFASILAIGTANPPNAVDQSTYPDFYFRITGNEHNTELKDKFKRICERSAIKQRYMYLTEEILKKNPDVCAFVEVPSLDARQAMLAMEVPRLAKEAAEKAIQEWGQSKSGITHLIFCSTTTPDLPGADFEVAKLLGLHPSVKRVGVFQHGCFAGGTVLRMAKDLAENNRGARVLVICSETTAVTFRGPSETHLDSLVGQALFGDGASALIVGADPIPQVEKACFEIVWTAQTVVPNSEGAIGGKVREVGLTFQLKGAVPDLISANIENCMVEAFSQFKISDWNKLFWVVHPGGRAILDRVEAKLNLDPTKLIPTRHVMSEYGNMSSACVHFILDQTRKASLQNGCSTTGEGLEMGVLFGFGPGLTIETVVLKSVPIQ
notes: recombinant in E. coli BL21 (DE3), Ni-NTA purified, size-exclusion
[3]
  Km: 12.77 µM
  kcat: 0.00317 s⁻¹
[4]
  Km: 3.82 µM
  kcat: 0.00267 s⁻¹
[5]
  Km: 43.89 µM
[6]
  Km: 3.87 µM
  kcat: 0.000167 s⁻¹
[7]
  Km: 23.24 µM
  kcat: 0.0035 s⁻¹
[8]
  Km: 29.42 µM
  kcat: 0.0045 s⁻¹
[9]
  Km: 4.15 µM
